Assay results published in patent publication US20200368279.

Tests used:
Test in all cases: cell_activity
[1] = test system: SBS75606 ZFN; conditions: pair with SBS75609, K562, 15 ug/mL mRNA; 70.1 at 3.75 ug/mL
[2] = test system: SBS75714 ZFN; conditions: pair with SBS75715, K562, 15 ug/mL mRNA; 84.0 at 3.75 ug/mL
[3] = test system: SBS75895 ZFN; conditions: pair with SBS75893, K562, 15 ug/mL mRNA; 76.6 at 3.75 ug/mL
[4] = test system: SBS75609 ZFN; conditions: pair with SBS75606, K562, 15 ug/mL mRNA; 70.1 at 3.75 ug/mL
[5] = test system: SBS75592 ZFN; conditions: pair with SBS75591, K562, 15 ug/mL mRNA; 80.0 at 3.75 ug/mL
[6] = test system: SBS75715 ZFN; conditions: pair with SBS75714, K562, 15 ug/mL mRNA; 84.0 at 3.75 ug/mL
[7] = test system: SBS75893 ZFN; conditions: pair with SBS75895, K562, 15 ug/mL mRNA; 76.6 at 3.75 ug/mL
[8] = test system: SBS75591 ZFN; conditions: pair with SBS75592, K562, 15 ug/mL mRNA; 80.0 at 3.75 ug/mL

## AAGGAGGTGCTCCTGGAATTACTTAGCA (double strand) [SBS75606 target]
[1]
  activity: 91.4 % indels

## AGGGATGGGATGACTTGGCTTTAGGTCA (double strand) [SBS75714 target]
[2]
  activity: 90.7 % indels

## AGGTTGGGAGTGGGGTCTTGTTCAGGGC (double strand) [SBS75895 target]
[3]
  activity: 91.3 % indels

## CTCCCCTGACCAAGGAAAATCGGGGTGG (double strand) [SBS75609 target]
[4]
  activity: 91.4 % indels

## GCTAAGTAATTCCAGGAGCACCTCCTTT (double strand) [SBS75592 target]
[5]
  activity: 91.2 % indels

## GGACTCAGGTGGGGGGTCTAGGGGTGAG (double strand) [SBS75715 target]
[6]
  activity: 90.7 % indels

## GGGCTAGGGCTGAAGTGAGGTGAAAGGT (double strand) [SBS75893 target]
[7]
  activity: 91.3 % indels

## TCGGCCATCAGAAGGGAGGGACCCTGCT (double strand) [SBS75591 target]
[8]
  activity: 91.2 % indels
